Numbering of substitutions follows the chain as printed.
B1: purified recombinant FLAG-6PGD (6-phosphogluconate dehydrogenase) WT (enzyme, human)
chain: MAQADIALIGLAVMGQNLILNMNDHGFVVCAFNRTVSKVDDFLANEAKGTKVVGAQSLKEMVSKLKKPRRIILLVKAGQAVDDFIEKLVPLLDTGDIIIDGGNSEYRDTTRRCRDLKAKGILFVGSGVSGGEEGARYGPSLMPGGNKEAWPHIKTIFQGIAAKVGTGEPCCDWVGDEGAGHFVKMVHNGIEYGDMQLICEAYHLMKDVLGMAQDEMAQAFEDWNKTELDSFLIEITANILKFQDTDGKHLLPKIRDSAGQKGTGKWTAISALEYGVPVTLIGEAVFARCLSSLKDERIQASKKLKGPQKFQFDGDKKSFLEDIRKALYASKIISYAQGFMLLRQAATEFGWTLNYGGIALMWRGGCIIRSVFLGKIKDAFDRNPELQNLLLDDFFKSAVENCQDSWRRAVSTGVQAGIPMPCFTTALSFYDGYRHEMLPASLIQAQRDYFGAHTYELLAKPGQFIHTNWTGHGGTVSSSSYNA
modifications: background lysine acetylation; acetylation at K76 and K294 increased after incubation with lysates of NAM+TSA-treated H1299 cells
B2: purified recombinant FLAG-6PGD K76R (enzyme, human)
chain: B1 chain with K76R
modifications: acetylation at K294 increased after incubation with lysates of NAM+TSA-treated H1299 cells

Target: the molecule itself
Assay: cross-linking

Protein | stoichiometry N
B1 | 2
B2 | 2
